Laboratory results: the supplement of paper PMC9170038

System: MS2 coat protein
Assay: apparent KD of MS2 coat protein; designed switch direction (-1 OFF switch, 1 ON switch): -1; higher = weaker reporter binding
Outline: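 The reported apparent KD is a per-design median over clusters, from curve fits of normalised cluster fluorescence. Protein titrations used SNAP-549-labelled MS2 coat protein, doubled from 0.7 or 1.5 nM to 3 µM, in Tris-HCl pH 7.5 buffer with KCl, MgCl2, BSA, DTT, tRNA and Tween-20, with no input, 200 uM small-molecule ligand, or an oligonucleotide input. The RNA switches were transcribed on Illumina chips by stalled E. coli RNA polymerase.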

[1] = input ligand: microRNA oligo, concentration not stated
[2] = Eterna round: R95, input ligand: FMN 200 uM
[3] = Eterna round: R95, input ligand: microRNA oligo, concentration not stated
[4] = Eterna round: R95, input ligand: none

Row | Sequence | apparent KD of MS2 coat protein (input ligand: FMN 200 uM) [nM] | apparent KD of MS2 coat protein [1] [nM] | apparent KD of MS2 coat protein (input ligand: none) [nM] | apparent KD of MS2 coat protein [2] [nM] | apparent KD of MS2 coat protein [3] [nM] | apparent KD of MS2 coat protein [4] [nM]
1 | GAGCCAUCGUGAGAUGGCUAAUUUACAUGAGGAUCACCCAUGUAGGAUAUCGAUUGCUUUGCAGUCGAGAAGGACAUGUUUAAU [JL ENG3 3.98] (Eterna round: R96, puzzle: Exclusion NG 3) | 71.6 | 28.3 | 36.2 |  |  | 
2 | GAGGGACAUGAGGAUCACCCAUGUGAGGAUAUGUAAGAGAGAAGAGAGAGGAUAAGAAACAGAAGGCGCGGGAG [JR_Exclu1_Sub090] (puzzle: Exclusion 1) |  |  |  | 33.9 | 44 | 77.1
3 | GAGUACUUAGGAUAUACAUGAGGAUCACCCAUGUCUAGGCGGCGCUGGGUCCCUCGCAGUAGAAGGAAGCGCUG [Ceeranat] (puzzle: Exclusion 3) |  |  |  |  | 20.6 | 
4 | GAGUGACAUGAGGAUCACCCAUGUGAGGAUAUCCGAUGGACCAAAUUAACAAUAGAAGGGAGAAGGCGCAUAAA [Exclusion 1 V8] (puzzle: Exclusion 1) |  |  |  | 133 | 152 | 158
5 | GAGUGACAUGAGGAUCACCCAUGUGAGGAUAUCGGACGGACCUAGUUAACAUCCGCCGCGAGAAGGCACAUCGG [Exclusion 1 V23] (puzzle: Exclusion 1) |  |  |  |  | 136 | 
6 | GAGUUACAUGAGGAUCACCCAUGUGAGGAUAUGAGUCAGUCACGGUGACGUGGCUGACUCAGAAGGCACAAAGG [Mat - Exclusion 1 - JL Mod - D37] (Eterna round: R97, puzzle: Exclusion 1) | 186 |  | 83.8 |  |  | 
7 | GAUAGAGAGCAGGAUAUCUUAGAAAUGUAUUAUAGAGAAGGGCUCACAUGAGGAUCACCCAUGUGGUCCUAGAU [JL Dibiri mod 15] (Eterna round: R96, puzzle: Exclusion 6) | 94.3 | 14.4 | 19.6 |  |  | 
8 | GAUAGAGAGCAGGAUAUCUUAGAAAUGUAUUAUAGAGAAGGGCUCACAUGAGGAUCACCCAUGUGGUCCUAGAU [JL Dibiri mod 15] (puzzle: Exclusion 6) |  |  |  |  | 16 | 
9 | GAUAUGUAAGGAUAUCGUGCAAGUUUCAAAAGAGGCUUGUGCGAGAAGGUACAUGAGGAUCACCCAUGUAGGUU [Omei Ex4 B14] (Eterna round: R97, puzzle: Exclusion 4) | 116 |  | 29.6 |  |  | 
10 | GAUCAACAUGAGGAUCACCCAUGUGAGGAUAUAGACCUAAGGCGCAAGCUAUGGGACUCUAGAAGGCGCGGAAU [Eternabot (L2) Solution 93] (Eterna round: R97, puzzle: Exclusion 1) | 40 |  | 36.6 |  |  | 
11 | GAUCACUGAGGAUAUACACAGAUACAAAGUAUCUGAUUGUGACAUGAGGAUCACCCAUGUAGAAGGCAGAGGUC [Omei Ex2 B6] (Eterna round: R97, puzzle: Exclusion 2) | 179 |  | 31.1 |  |  | 
12 | GAUCAUGCAGGAUAUACAGUAUCCAUGAAAACAUGGAUCUCACAUGAGGAUCACCCAUGUAGAAGGGCAUGAUC [Omei Ex2 A25] (Eterna round: R97, puzzle: Exclusion 2) | 40.1 |  | 41.4 |  |  | 
13 | GAUCAUGCAGGAUAUACAUAAACCAUGAAAACAUGGCUCAAACAUGAGGAUCACCCAUGUAGAAGGGCAUGAUC [Omei Ex2 A19] (Eterna round: R97, puzzle: Exclusion 2) | 69.1 |  | 31.5 |  |  | 
14 | GAUCAUGCAGGAUAUACAUGGAACAUUAAAUCAUGAAUUUCACAUGAGGAUCACCCAUGUAGAAGGGCAUGAUC [Omei Ex2 A16] (Eterna round: R97, puzzle: Exclusion 2) | 32.5 |  | 31.6 |  |  | 
15 | GAUCAUGCAGGAUAUACAUUAACCAUGAAAACAUGGAUCAAACAUGAGGAUCACCCAUGUAGAAGGGCAUGAUC [Omei Ex2 A21] (Eterna round: R97, puzzle: Exclusion 2) | 46.6 |  | 25.9 |  |  | 
16 | GAUCCCAUUGUUAGGAUAUAUAGCCUAACGCGAGUGUAGAAGGGACAUGAGGAUCACCCAUGUGUGCAUUAGGG [Eternabot (L2) Solution 96] (Eterna round: R97, puzzle: Brourd's mod of Exclusion 4) | 37.2 |  | 43.8 |  |  | 
17 | GAUCCUUCUGUUAGGAUAUGCAACGGGCUUCCGCAGCAGAAGGAACAUGAGGAUCACCCAUGUCAAAUAAAAUC [JL-BMX4-4.36 ViennaUCT mod] (Eterna round: R97, puzzle: Brourd's mod of Exclusion 4) | 54.1 |  | 18.7 |  |  | 
18 | GAUGCUUCGGCAUCUACAAGCUUUUUGCUCGUCUUAUUAACAUGAGGAUCACCCAUGUUAAUGAGACCUCAUGUAUU [Sensor v3 - turn-off variant 2 - 7] (puzzle: Sensor v3, turn-off variant 2) |  |  |  | 13.5 | 14.9 | 11.1
19 | GAUUAACAUGAGGAUCACCCAUGUGAGGAUAUGGACUGGCUCACUUUUCGAUUCCCGUCUAGAAGGCACAUCUU [1986#10] (Eterna round: R97, puzzle: Exclusion 1) | 85.9 |  | 41.1 |  |  | 
20 | GAUUAACAUGAGGAUCACCCAUGUGAGGAUAUGGACUUGCCCACUUAACCAUUAGAGUCUAGAAGGCGCAUCUC [1986#28] (Eterna round: R97, puzzle: Exclusion 1) | 27.1 |  | 22.7 |  |  | 
21 | GAUUAUGCGAGCUUUAGGGACAUGAGGAUCACCCAUGUUCGUCUUAUUAGUCUAGAUACGCUGACAUACCUAAAUCU [JMF 96] (puzzle: Sensor v3, turn-off variant 1) |  |  |  | 14.5 | 18.5 | 15.8
22 | GAUUAUGCGAGCUUUAGGGACAUGAGGAUCACCCAUGUUCGUCUUAUUGAUCUAGGUACGCUAACAUACCUAAAUCU [Mod of one of jandersonlee's solutions 3] (puzzle: Sensor v3, turn-off variant 1) |  |  |  | 23 | 36.3 | 23
23 | GAUUAUGCGAGCUUUAGGGACAUGAGGAUCACCCAUGUUCGUCUUAUUGAUCUAGGUACGCUGACAUACCUAAAUCU [Mod of one of jandersonlee's solutions 2] (puzzle: Sensor v3, turn-off variant 1) |  |  |  | 22.4 | 36.1 | 24.4
